Laboratory results published in patent US9266930.
Where two headings read alike, the source gives them in different places.

Key:
[1] = molecular target: T1, HLA-DR9 (DRB1*0901) (human)
T1 chain 1: not shown
T1 chain 2: not shown

[2] = molecular target: T2, HLA-DR5w12 (DRB1*1201) (human)
T2 chain 1: not shown
T2 chain 2: not shown

[3] = molecular target: T3, HLA-DR7 (DRB1*0701) (human)
T3 chain 1: not shown
T3 chain 2: not shown

[4] = molecular target: T4, HLA-DR8w2 (DRB1*0802) (human)
T4 chain 1: not shown
T4 chain 2: not shown

[5] = molecular target: T5, HLA-DR6w19 (DRB1*1302) (human)
T5 chain 1: not shown
T5 chain 2: not shown

HLA-A*1101 (Human) [6] = molecular target: HLA-A*1101 (Human)
[7] = molecular target: T6, HLA-DRw53 (DRB4*0101) (human)
T6 chain 1: not shown
T6 chain 2: not shown

[8] = molecular target: HLA-DR4w15 (DRB1*0405) (human)
[9] = molecular target: HLA-DR3 (DRB1*0301) (human)
[10] = molecular target: HLA-DR2w2β2 (DRB5*0101) (human)
[11] = molecular target: HLA-DR5w11 (DRB1*1101) (human)
[12] = molecular target: HLA-DR4w4 (DRB1*0401) (human)
HLA-A*1101 (Human) [13] = molecular target: HLA-A*1101 (Human); remark: listed apart in the source
[14] = molecular target: HLA-DR1 (DRB1*0101) (human)
[15] = molecular target: T2, HLA-DR5w12 (DRB1*1201) (human)
[16] = molecular target: T3, HLA-DR7 (DRB1*0701) (human)
[17] = molecular target: T4, HLA-DR8w2 (DRB1*0802) (human)

ANQLVVILTDGIPDS (modifications not checked) [… (Pf SSP2 153)]
binding affinity ratio (IC50 of standard peptide / IC50 of test peptide) [1]: 0.042
binding affinity ratio (IC50 of standard peptide / IC50 of test peptide) [2]: 0.0003
binding affinity ratio (IC50 of standard peptide / IC50 of test peptide) [3]: 0.0054
binding affinity ratio (IC50 of standard peptide / IC50 of test peptide) [4]: -0.0002
binding affinity ratio (IC50 of standard peptide / IC50 of test peptide) [5]: 0.007

CGNGIQVRIK (modifications not checked) [… (Pf CSP 377, A11 motif peptide)]
binding affinity ratio (IC50 of standard peptide / IC50 of test peptide) (HLA-A*1101 (Human) [6]): 0.0002

IGPFMKAVCVEVEKT (modifications not checked) [… (Pf SSP2 227)]
binding affinity ratio (IC50 of standard peptide / IC50 of test peptide) [1]: 0.082
binding affinity ratio (IC50 of standard peptide / IC50 of test peptide) [2]: 0.0038
binding affinity ratio (IC50 of standard peptide / IC50 of test peptide) [7]: 0.07
binding affinity ratio (IC50 of standard peptide / IC50 of test peptide) [3]: 0.0019
binding affinity ratio (IC50 of standard peptide / IC50 of test peptide) [4]: -0.0003
binding affinity ratio (IC50 of standard peptide / IC50 of test peptide) [5]: 0.0003

ILSVFFLALFFIIFN (modifications not checked)
binding affinity ratio (IC50 of standard peptide / IC50 of test peptide) [8]: -0.0009
binding affinity ratio (IC50 of standard peptide / IC50 of test peptide) [9]: -0.0008
binding affinity ratio (IC50 of standard peptide / IC50 of test peptide) [10]: 0.0091

AGGIAGGLALLACAG (modifications not checked) [… (Pf SSP2 513)]
binding affinity ratio (IC50 of standard peptide / IC50 of test peptide) [2]: 0.0007
binding affinity ratio (IC50 of standard peptide / IC50 of test peptide) [7]: -0.0005
binding affinity ratio (IC50 of standard peptide / IC50 of test peptide) [3]: -0.0003
binding affinity ratio (IC50 of standard peptide / IC50 of test peptide) [4]: 0.0004

AGGLALLACAGLAYK (modifications not checked)
binding affinity ratio (IC50 of standard peptide / IC50 of test peptide) [11]: -0.0002
binding affinity ratio (IC50 of standard peptide / IC50 of test peptide) [12]: -0.0007

NLYNELEMNY (modifications not checked) [… (CSP 46)]
binding affinity ratio (IC50 of standard peptide / IC50 of test peptide) (HLA-A*1101 (Human) [13]): 0.0002

VKYLVIVFLIFFDLF (modifications not checked)
binding affinity ratio (IC50 of standard peptide / IC50 of test peptide) [12]: 0.003
binding affinity ratio (IC50 of standard peptide / IC50 of test peptide) [14]: 0.0001

DGNNEDNEK (modifications not checked) [… (Pf CSP 96, A11 motif peptide)]
binding affinity ratio (IC50 of standard peptide / IC50 of test peptide) (HLA-A*1101 (Human) [6]): 0.0002

AVPLAMKLIQQLNLN (modifications not checked) [… (Pf SSP2 68)]
binding affinity ratio (IC50 of standard peptide / IC50 of test peptide) [2]: 0.13
binding affinity ratio (IC50 of standard peptide / IC50 of test peptide) [7]: 0.035
binding affinity ratio (IC50 of standard peptide / IC50 of test peptide) [3]: 0.077
binding affinity ratio (IC50 of standard peptide / IC50 of test peptide) [4]: 0.04

NDIEKKICK (modifications not checked) [NDIEKKIK (CSP 401)]
binding affinity ratio (IC50 of standard peptide / IC50 of test peptide) (HLA-A*1101 (Human) [6]): 0.0002

EVNKRKSKY (modifications not checked) [… (P. falciparum EXP, position 66)]
binding affinity ratio (IC50 of standard peptide / IC50 of test peptide) (HLA-A*1101 (Human) [6]): 0.0002

TVLLGGVGLVLYNTE (modifications not checked) [… (Pf EXP 90)]
binding affinity ratio (IC50 of standard peptide / IC50 of test peptide) [15]: 0.0004
binding affinity ratio (IC50 of standard peptide / IC50 of test peptide) [16]: 0.0007
binding affinity ratio (IC50 of standard peptide / IC50 of test peptide) [17]: -0.0002

NTRVLNELNY (modifications not checked) [… (CSP 31)]
binding affinity ratio (IC50 of standard peptide / IC50 of test peptide) (HLA-A*1101 (Human) [6]): 0.0002

LDYENDIEKK (modifications not checked)
binding affinity ratio (IC50 of standard peptide / IC50 of test peptide) (HLA-A*1101 (Human) [13]): 0.0002

NGDNGREGK (modifications not checked) [… (CSP 82)]
binding affinity ratio (IC50 of standard peptide / IC50 of test peptide) (HLA-A*1101 (Human) [13]): 0.0002

LGNVKYLVIVFLIFF (modifications not checked)
binding affinity ratio (IC50 of standard peptide / IC50 of test peptide) [9]: -0.0008
binding affinity ratio (IC50 of standard peptide / IC50 of test peptide) [14]: 0.0006

AGGLALLACAGLAYK (modifications not checked) [… (Pf SSP2 517)]
binding affinity ratio (IC50 of standard peptide / IC50 of test peptide) [2]: 0.0051
binding affinity ratio (IC50 of standard peptide / IC50 of test peptide) [7]: -0.0005
binding affinity ratio (IC50 of standard peptide / IC50 of test peptide) [3]: 0.0009
binding affinity ratio (IC50 of standard peptide / IC50 of test peptide) [4]: 0.0003

VVILTDGIPDSIQDS (modifications not checked) [… (Pf SSP2 157)]
binding affinity ratio (IC50 of standard peptide / IC50 of test peptide) [2]: 0.0001
binding affinity ratio (IC50 of standard peptide / IC50 of test peptide) [7]: 0.0114
binding affinity ratio (IC50 of standard peptide / IC50 of test peptide) [3]: -0.0003
binding affinity ratio (IC50 of standard peptide / IC50 of test peptide) [4]: -0.0003

CGVWDEWSPCSVTCG (modifications not checked)
binding affinity ratio (IC50 of standard peptide / IC50 of test peptide) [11]: -0.0002
binding affinity ratio (IC50 of standard peptide / IC50 of test peptide) [12]: -0.0007
binding affinity ratio (IC50 of standard peptide / IC50 of test peptide) [10]: -0.0006
binding affinity ratio (IC50 of standard peptide / IC50 of test peptide) [14]: 0.0001

MKILSVFFLALFFII (modifications not checked) [… (Pf EXP 1)]
binding affinity ratio (IC50 of standard peptide / IC50 of test peptide) [1]: 0.006
binding affinity ratio (IC50 of standard peptide / IC50 of test peptide) [2]: 0.0023
binding affinity ratio (IC50 of standard peptide / IC50 of test peptide) [3]: 0.036
binding affinity ratio (IC50 of standard peptide / IC50 of test peptide) [4]: 0.0023
binding affinity ratio (IC50 of standard peptide / IC50 of test peptide) [5]: 0.0019

LDYENDIEK (modifications not checked)
binding affinity ratio (IC50 of standard peptide / IC50 of test peptide) (HLA-A*1101 (Human) [13]): 0.0002

LIDVHDLISDMIKKE (modifications not checked) [… (Pf EXP 47)]
binding affinity ratio (IC50 of standard peptide / IC50 of test peptide) [1]: 0.043
binding affinity ratio (IC50 of standard peptide / IC50 of test peptide) [2]: 0.0001
binding affinity ratio (IC50 of standard peptide / IC50 of test peptide) [7]: 0.094
binding affinity ratio (IC50 of standard peptide / IC50 of test peptide) [3]: 0.01
binding affinity ratio (IC50 of standard peptide / IC50 of test peptide) [4]: 0.0096
binding affinity ratio (IC50 of standard peptide / IC50 of test peptide) [5]: 0.0004

NGREGKDEDK (modifications not checked) [… (CSP 85)]
binding affinity ratio (IC50 of standard peptide / IC50 of test peptide) (HLA-A*1101 (Human) [13]): 0.0002

LIDVHDLISDMIKKE (modifications not checked)
binding affinity ratio (IC50 of standard peptide / IC50 of test peptide) [8]: 0.0076
binding affinity ratio (IC50 of standard peptide / IC50 of test peptide) [9]: 0.01

RHPFKIGSSDPADNA (modifications not checked) [… (Pf EXP 107)]
binding affinity ratio (IC50 of standard peptide / IC50 of test peptide) [1]: 0.095
binding affinity ratio (IC50 of standard peptide / IC50 of test peptide) [2]: 0.0001
binding affinity ratio (IC50 of standard peptide / IC50 of test peptide) [3]: -0.0003
binding affinity ratio (IC50 of standard peptide / IC50 of test peptide) [4]: 0.038
binding affinity ratio (IC50 of standard peptide / IC50 of test peptide) [5]: 0.0003

CVEVEKTASCGVWDE (modifications not checked)
binding affinity ratio (IC50 of standard peptide / IC50 of test peptide) [8]: -0.0009
binding affinity ratio (IC50 of standard peptide / IC50 of test peptide) [11]: -0.0002
binding affinity ratio (IC50 of standard peptide / IC50 of test peptide) [12]: 0.0021
binding affinity ratio (IC50 of standard peptide / IC50 of test peptide) [10]: -0.0005
binding affinity ratio (IC50 of standard peptide / IC50 of test peptide) [14]: 0.0004

RDGNNEDNEK (modifications not checked) [… (P. falciparum CSP, position 95)]
binding affinity ratio (IC50 of standard peptide / IC50 of test peptide) (HLA-A*1101 (Human) [6]): 0.0002
